B1: TCN-533 (5256_A17) (antibody, V domains shown)
VH: QVQLVQSGADVKKPGSSVTVSCKASGGSFSNYGINWVRQAPGQGLEWMGGIIPLINAPNYAPKFQGRVTITADMFSNIVSLQLTSLRTDDTAVYYCARRKMTTAIDYWGQGTLVTVSS
VL: QPVLSQPPSASASLGASVTLTCTLSSGFDNYQVAWYQQRPGKGPRFVMRVGNGGNVASKGDGIPDRFSVSGSGLNRYLTIKNIQEDDESDYYCGADHGSGNNFVSPYVFGGGTKLTVL
B2: TCN-538 (3206_O17) (antibody, V domains shown)
VH: QITLKESGPTLVKPTQTLTLTCVFSGFSLSITGVRVGWIRQPPGKALEWLALISWDDEKHYSPSLQSRLTITKDTSKNQVVLTMTNLDPVDTATYYCARSTDRGHVLRYFGWMLPGDAFDVWGQGTMVTVSS
VL: DIVMTQSPDFLPVSLGERATINCKSSQRVLYSSNNKNYLAWYQLKPGQPPKLIIYWASTRESGVPDRFSGSGSGTEFTLTISSLQAEDVAVYYCQQYYSRPYTFGQGTKLEIK
B3: TCN-536 (5095_N01) (antibody, V domains shown)
VH: QVQLQQWGAGLLKPSETLSLTCAVYGGSFSVSGYYWSWIRQPPGRGLEWIGEISHGGSTNYNPSLKSRVTISVDTTKNQFSLRLSSVTAADTAVYYCARGTDPDTEVYCRVGNCAAFDYWGQGSLVTVSS
VL: EIILAQSPGTLSLSPGERATLSCRASQFVSTRSLAWYQQRPGQAPRLLIYGASSRATGIPDRFSGSGSGTDFTLTISRLEPEDFAVYYCQHYGYSPRYAFGQGSKVEIK
B4: TCN-535 (5246_P19) (antibody, V domains shown)
VH: QVQLVQSGSEVKKPGTSVKVSCTASGSVFTNYGISWVRQAPGQGLEWMGGIIPLFGAAKYAQKFQGRVTITADESTKTVYMELSRLTSKDTAIYFCAKAPRVYEYYFDQWGQGTPVTVSS
VL: EIVLTQSPGTLSLSPGERATLSCRASQSVSSSQLAWYQQKPGQAPRLIIYGASTRATGIPDRFSGSGSGTDFTLTIGRLEPEDFAVFFCQQYSTSPPTFGQGTKVDFK
B5: TCN-540 (5060_F05) (antibody, V domains shown)
VH: QVQLVQSGGGVVQPGRSLRLSCAASGFTFSSYAMHWVRQAPGKGLEWVAIISYDGNDQYYTDSVKGRFTISRDSSKVYLQMHRLRPEDTAVYYCAKEFETSGYFHGSFDYWGQGILVTVSS
VL: QSALTQPASVSGSPGQSITISCTGTSSDVGGYNYVSWYQQHPGKAPKLLIYEVTNWPSGVSNRFSGSKSGNTASLTISGLQAEDEADYYCSSYAGSSTWVFGGGTRVTVL
B6: TCN-539 (5056_A08) (antibody, V domains shown)
VH: QVQLVESGGGVVQPGRSLRLSCAASEITFITYAMHWVRQAPGKGLEWVALISDDGSNKFYADSVKGRFTISRDNSKNTLYLQMNSLRAEDTAAYYCAREGVYFDSGTYRGYFDYWGQETLVTVSS
VL: EIVLTQSPATLSLSPGERATLSCRASQSVSSYLAWYQQKPGQAPRLLIYDASNRATGIPARFSGSGSGTDFTLTISSLEPEDFAVYYCQQRSHWPPITFGQGTRLEIK
B7: TCN-544 (5082_A19) (antibody, V domains shown)
VH: QVQLQESGPGLVKPSETLSLTCTVSRGSIGHYFWSWIRQPPGKGLEWIGYISYSGSTKYNPSLRSRVTISVDTSKNQFSLNLNSVTATDTALYYCAREDYDILTGAGPGMEVWGQGTTVTVSS
VL: QSMLTQPPSASGTPGQRVTISCSGSSSNIGSNTVNWFKHLPGTAPKLLIYRNDLRPSGVPDRFSGSKSGTSASLAISGLQSEDEADYYCATWDDSLNGFYVFGTGTKVTVL
B8: TCN-530 (5248_H10a) (antibody, V domains shown)
VH: QVQLVQSGAEVRKPGSSVKVSCKASGGPFMSYAIGWVRQAPGQGLEWMGGINPVFGRPHYAQKFQGRVTIATDDSTKTSYMELSSLTSEDTGMYYCASRYSRSSPGTFESWGQGTLVTVSS
VL: EIVMTQFPATLSVSPGERVTLSCRASQSVSNNLAWYQQKPGQPPRLLIYDASTRATGVPAKFSGTGSGTEFTLSISSLQSEDFAVYYCQQYHNWPPSYSFGLGTKLEIK
B9: TCN-545 (5082_I15) (antibody, V domains shown)
VH: QVQLQQWGAGLLKPSETLSLSCAVFGGSFSDYYWTWIRQPPGKGLEWIGEIKHSGRTNYNPSLESRVTISVDTSKNQFSLKLSSVTAADTAIYYCARGTDPDTEGYCRSGSCSAFDFWGQGTLVTVSS
VL: EIVLTQSPGTLSLSPGERATLSCRASHFVNYRSLAWYQQTPGQVPRLLIYGASTRATGIPDRFSGSGSGTDFTLTISRLEPEDFAVYFCQQYGGSPRYTFGQGTRLEIK
B10: TCN-542 (5079_A16) (antibody, V domains shown)
VH: QVQLQESGPGLVKPSQTLSLTCTVSGGSISSGNYYWNWVRQHPGKGLEWIGYIYYRGSTFYNPSLKSRVTISIDTSKNQFSLRLSSVTAADTAVYYCAKDTRSSLDNYQYGMDVWGQGTTVTVSS
VL: QTVVTQEPSLTVSPGGTVTLTCASSTGAVTSSYFPNWFQQKPGQAPRPLIYSTTIRHSWTPARFSGSLLGGKAALTLSGVQPEDEADYYCLLYSGGDPVAFGGGTKLTVL
B11: TCN-522 (3212_I12) (antibody, V domains shown)
VH: QVQLQQWGAGLLKPSETLSLTCTVSGGSLTDYSWNWIRQPPGKGLEWIGDTLHNGYTNYNPSLRGRVSISIDTSKNQVSLRLTSVTAADTALYYCARGSGGYGGFDYFGKLRTWDFWGQGTLVTVSS
VL: DIQLTQSPSSLSASVGDRVTITCRASQGIRNDLGWYQQKPGNAPKRLIFGASSLQSGVPSRFSGSGSGTEFTLTISSLQPEDFATYYCLQHNSYPYTFGQGTKLEIK
B12: TCN-531 (5091_H13) (antibody, V domains shown)
VH: EVQLVESGGDLVQPGRSLKLSCTGSGFTFGDYGVTWVRQAPGKGLEWVGFIRTRPWGGTADTAASVKGRFTISRDDSKSLAYLQMNSLKTEDTAVYYCCRDAPPNVEVASMTNWYFDLWGRGTLVTVSS
VL: DIQLTQSPSSLSASVGDRVTITCRASQGILNCLAWYQQKPGKVPNLLMYAASTLQSGVPSRFSGSGFGTDFTLTISSLQPEDVATYYCQTYGGVSTFGGGTKVEIR
B13: TCN-529 (5297_H01) (antibody, V domains shown)
VH: QITLRESGPTLVKPTQTLTLTCTFSGFSLSTNGVNVGWIRQPPGKALEWLALIYWDDDKRYSPSLKRRLTITKDTSKNQVVLTLTNMDPVDTATYYCAHRPDFYGDFEYWGPGTLVTVSS
VL: QSALTQPASVSGSPGQSITISCTGSSSDIGGYNYVSWYQQHPGKAPKLMIYDVNNRPSGVSNRFSGSKSGNTASLTISGLQTDDEADYYCGSYTGSPHYVFGTGTKVTVL
B14: TCN-527 (5086_C06) (antibody, V domains shown)
VH: QVQLQESGPGLVKPSETLSLNCAVSGGSISNYYWSWIRQPPGKGLEWIGYISYNGRPKYNPSLTSRVTISVDTSKDQFSLELRSVTAADTALYYCARETRFGELLSPYDAFEIWGQGTMVTVSS
VL: DIQMTQSPSSLSASVGDRVTMTCRASQNIRSYLNWYQQRPGTAPKLLIYAASTLHSGVPSRFSGGGSGTDFTLTINNLQPEDFASYYCQQSYDNPQTFGQGTKVEIK
B15: TCN-543 (5081_G23) (antibody, V domains shown)
VH: QVHLVQSGAEVRKPGDSVKVSCKTSGYTFSTYPVAWVRQVPGQGLEWMGWISTYNGNTNFAQNFQGRVTLTTDTTTNTAYMEVRSLKFDDTAVYYCARVEGSYRDFWNNQNRFDPWGQGTLVTVSS
VL: SYVLTQPPSVSVAPGQTARISCGGSNIGGKSVHWYQQKPGQAPVLVVYDDSGRPSGIPERFSGSNSGDTATLTISRVEAGDEADYFCQVWDNFGGVFGTGTKVTVL
B16: TCN-546 (5089_L08) (antibody, V domains shown)
VH: QVQLQQWGAGLLKPSETLSLTCGVYGGSLSDYYWSWIRQPPGKGLEWIGEINHSGGTNYNPSLKRRVTISVDTSKKQFSLKMNSVTAADTAVYYCARGTDPDTEVYCRAGNCAAFDFWGQGTLVTVSS
VL: EIVLTQSPGTLSLSPGERATLSCRASHFVIGRAVAWYQQKPGQAPRLLIYGASSRATGIPDRFSGSGSGTDFTLTISRLETEDFAVFYCQHYGSSPRYAFGQGTKLEIK
B17: TCN-526 (5084_C17) (antibody, V domains shown)
VH: EVLMVESGGGLVQPGGSVRLSCVASGFSFSSHWMTWVRQAPGKGLEWVANIEDDGGDKYYVDSVKGRFIISRDNAKNSVYLQMNSLRAEDTAVYFCARGSGSSDRSDYDPHYYYYLDVWGKGATVTVSS
VL: DIQLTQSPSSLSASVGDRVTITCRASQSISRYLNWYQQKPGKAPKLLLFAASTLLDGVPSRFSGSGSGTDFTLTISSLQPEDFATYYCQRNHSPSWTFGQGTRVEIK
B18: TCN-537 (3194_D21) (antibody, V domains shown)
VH: QVQLQQWGSGLLKPSETLSLTCAVYGGSFRDDYWTWIRQPPGKGLEWIGEINHSGRTNYNPSLKSRVTISVDTSLKQFSLKVISVTAADTAVYYCARGTSHVSRYFDWLPPTNWFDPWGQGTQVTVSS
VL: DIVLTQSPGTLSLSPGERATLSCRASQSVSSSYLAWYQQKPGQAPRLVMYGAATRATGIPDRFSGSGSGPDFTLTISRLEPEDFAMYYCQQYGNSPITFGQGTRLEIK
B19: TCN-534 (5249_B02) (antibody, V domains shown)
VH: QVQLVQSGAEVKKPGSSVKVSCRESGGTFNGYTITWVRQAPGQGLEWMGGIIPMMGTVNYAQKLQGRVTITTDYFTKTAYMDLNNLRSEDTAMYYCVKIRYTGQQLLWGQGTLVTVSS
VL: DIQMTQSPSTLSASIGDRVTITCRASQSIASWLAWYQQKPGKAPKLLIYEAVNLESGVPSRFSGSGSGTDFTLTISSLQPDDFATYFCQHYGTISQTFGGGTKVEIK
B20: TCN-532 (5262_H18) (antibody, V domains shown)
VH: QVQLQESGPGLVKPSETLSLTCTVSGGSVSSETYYWSWIRQPPGKGLEWIGYIYYIGNTDYRPSLKSRVTISLDTSKNQFSLKLSSVTAADTAVYYCARGAYYDSSGYPAFYIWGQGTMVTVSS
VL: QSVLTQPPSVSGAPGQRVTISCTGSSSNIGSDYDVHWYKQLPGTAPKLLIFGNSNRPSGVPDRFSGSKSGTSASLAITGLQAEDEADYYCQSYDSSLSGFHVFGSGTKVTVL
B21: TCN-528 (5087_P17) (antibody, V domains shown)
VH: QVQLVQSGSEVKKPGASVKVSCKASGYTFTNYDINWIRQAPGQGLEWMGWINPNSGTTGSAQRFQGRVTITVDTSITTVYMELSSLRSDDTAIYYCARGRELLRLQHFLTDSQSERRDCFDPWGQGTLVTVSS
VL: DIQMTQSPSSLSASVGDRVTITCRANQDIGIYLNWYQQNPGKVPKLLLHGASSLQGGVPSRFSASGSGTDFTLTIHSLQPEDLATYYCQQSRRLPYTFGQGTRVELK

Biological target: Hemagglutinin of influenza A/Solomon Islands/3/06 (H1N1) on whole virions (Influenza A virus A/Solomon …)
Assay: cell-based or functional assay

Row | Binder | % Neutralization
1 | B1 | 56%
2 | B2 | 35%
3 | B3 | 75%
4 | B4 | 82%
5 | B5 | 100%
6 | B6 | 97%
7 | B7 | 95%
8 | B8 | 64%
9 | B9 | 98%
10 | B10 | 98%
11 | B11 | 33%
12 | B12 | 65%
13 | B13 | 0%
14 | B14 | 12%
15 | B15 | 100%
16 | B16 | 0%
17 | B17 | 0%
18 | B18 | 89%
19 | B19 | 86%
20 | B20 | 11%
21 | B21 | 0%

From patent publication US20150104459A1 (published 2015)
